One data set deals with JARID2 1-530 (hJARID2). The experiment in a line: BLI. The note with it: BLI: 10 mM HEPES pH 7.4, 150 mM NaCl, 3 mM EDTA, 0.005% Tween-20, 1 mg/ml BSA, 25 C, pull-down buffer not given in the material.
Data set [1] addresses H2AK119u1(I44A) mononucleosomes (Xenopus | not stated) (UniProt P0CG48). The experiment in a line: BLI; biotinylated mononucleosomes immobilised on streptavidin biosensors; Jarid2 1-530 at 2–25 μM; 25 °C; 10 mM HEPES pH 7.4, 150 mM NaCl, 3 mM EDTA, 0.005% Tween-20, 1 mg/ml BSA; kon and koff from kobs versus concentration; n=3. (BLI is a label-free optical method that tracks binding on a fibre tip over time.)

In data set [2] the target is H2AK119u1-modified mononucleosomes (Xenopus | not stated). The data set is described as above.
Data set [3] addresses unmodified mononucleosomes (Xenopus). Described as above.

A word on the Kd: it is the constant that tells how readily two partners part at equilibrium. Low values mean tighter binding, high ones weaker binding. As to H2AK119u1 mononucleosome (601, 147 bp), the Kd in the data set on JARID2 1-530 (hJARID2) (kon 576 s-1 (so in the source), H2A K119C crosslinked to His-ubiquitin G67C (so in the source) by 1,3-dichloroacetone) came out at 2.8 µM.
As for “H2AK119u1(I44A) mononucleosome (601, 147 bp)”, in the data set with JARID2 1-530 (hJARID2) (H2A K119C crosslinked to His-ubiquitin I44A;G67C (so in the source)), the Kd is 5.1 µM.
Consider “hJARID2 1–530 (from UniProt Q92833 1-530) (domain or fragment)”, for which the Kd in data set [1] stood at 5.1 µM; in data set [2] it was 2.8 µM; in data set [3], 5 µM.
unmodified mononucleosome (601, 147 bp) had a Kd in the data set with JARID2 1-530 (hJARID2) (kon 313 s-1 (so in the source)) of 5 µM.
